Data as given in the RNAGym collection of RNA variant scans (doi:10.1073/pnas.2313332121).
This sample holds only a part of the variants without activity.

B1: TPR 5TU (parent)
chain: GGAUCUUCUCGAUCUAACAAAAAAGACAAAUCUGCCACAAAGCUUGAGAGCAUCUUCGGAUGCAGAGGCGGCAGCCUUCGGUGGCGCGAUAGCGCCAACGUUCUCAACUAUGACACGCAAAACGCGUGCUCCGUUGAAUGGAGUUUAUCAUG

Variants of: B1
Experiment: polymerase ribozyme fitness, log enrichment relative to wild type (log ratio); higher = more active; in vitro selection for triplet polymerase activity
Outline: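 To select mutant libraries of each subunit of a heterodimeric triplet polymerase ribozyme, built by PCR and transcribed, each was annealed with a biotinylated primer, partner subunit and triplets, then incubated frozen at −7 °C. Extended constructs were gel-excised, captured on streptavidin beads and amplified by RT-PCR, in one round carried out in triplicate. Illumina sequencing of input and output libraries kept genotypes with ≥10 input reads and ≥1 read per output. Fitness is the base-2 logarithm of genotype enrichment relative to wild-type enrichment, from inverse-variance-weighted replicate averages.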

Row | Variant | polymerase ribozyme fitness (log ratio)
1 | GGAUCUUCUCGAUCUAACAAAAAAGACAAAUCUGCCACAAAGCUUGAGAGCUUUUUCGGAUGCAGAGGCGGCAGCCUUCGGUGGCGCGAUAGCGCCAACGUUCUCAACUAUGACACGCAAAACGCGUGCUCCGUUGAAUGGAGUUUAUCAUG [A52U C54U] | -1.2
2 | GGAUCUUCUCGAUCUGACAAAAAAGACAAAUCUGCCACAAACCUUGAGAGCAUGUUCGGAUGCAGAGGCAGCAGCCUUCGGUGGCGAGAUAGCGCCAAUGUUCUCAACUAUGCCACGCAAAACGCGUGCUCCGUUGAAUGUAGUUUAUCACG [A16G G42C C54G G70A C87A C99U A113C G141U U151C] | ≤ -4.2
3 | GGAUCUUCUCGAUCUAACAAAAAAGACAAAUCUGCCACAAAGCUUGAGAGCAUCUUCGGAUGCAGAGGCGGCAGCCUUCGGUAGCGCGAUAGCGCCAACGUUCUCAACUAUGAUACGCAAAACGCGUGCUCCGUUGAAUGGAGUUUAUCAUG [G83A C114U] | -2.41
4 | GGAUCUUCUCGAUCUAACAAUAAAGACAAAUCUGCCAUAAAGCUUGAGAGCAUCUUCGGAUGCAGAGGCGGCAGCCUUCGGUGGCGCGAUAGCGUCAACGUUCUCUACUAUGACACGCAAAACGCGUGCUCCGUUGAAUGGAGCUUAUCAUG [A21U C38U C95U A106U U144C] | -2.96
5 | GGAUCUUCUCGAUCUAACAAAAAAGACAAAUCUGCCACAAAGCUUGAGAUCAUCUACGGAUGCAGAGGCGGCAGCCUUCGGUGGCGCGAUAGCUCCAACGUUCUCGACUAUGACAGGCAAAAUGCGUGCUCCGUUGAAUGGAGUUUAUCAUG [G50U U56A G94U A106G C116G C123U] | -0.9
6 | GGAUCUUCUCGAUCUAACAAAAAAGACAAAUCUGCCACAAAGCUUGAGAGCAUCUUCUGAUGCAGAGGCGGCAGCCUUCGGUGGCGCGAUAGCGCCAACGUUCUCAACUAUGACACGCAAAACGCGUGCUCCGUUGAAUGGAGUUUAUCAUU [G58U G152U] | -2.71
7 | GGAUCUUCUCGAUCUAACAAAAAAGACAAAUCUGCCACGAAGCUUGAGAGCAUCUUCGGAUGCAGAGGCGGCAGCCUUCUGUGGCGCGAUAGCGUCAACGUUCUCAACUAUGACAGGCAAAACGCGUGCUCCGUUGAAUGGAGUUUAUCAUG [A39G G80U C95U C116G] | -3.6
8 | GGAUCUUCUCGAUCUAACAAGAAAGACAAAUCUGCCACAAAGCAUGAGAGCAUCUUCGGAUGCAGAGUCGGCAGCCUUCGGUUGCGCGAUAGCGCCAACGUUCUCGACUAUGACUCGACAAAUGCGUGCUCCGUUGAAUGGAGGUUAUCAUG [A21G U44A G68U G83U A106G A115U C118A A119C C123U U144G] | ≤ -4.2
9 | GGAUCUUCUCGAUCUAACAAAAAAGUCAAAUCUUCCACAAAGCUUGAGAGCAUCUUCGCAUACAGAGGCGGCAGGCUUCGGUGGCGCGAUAGGGCCAACGUUCACAACUAUGACACGCAAAACGCGUGCUCCGUUGAAUGGAGUUUAUCAUA [A26U G34U G59C G62A C75G C93G U104A G152A] | ≤ -4.2
10 | GGAUCUUAUCGGUCUAGCAAAAAAGACAAAUCUGCCACAAAGCUUGAGAGCAUCUACGGAUGCAGAGGCGGCAGCCUUCGGUGGCGCGAUAGCGCCUACGUUCUCAACUAUGACACGCAAAACGCGUGCUCCGUUGAAUGGAGUUUCUCAUG [C8A A12G A17G U56A A97U A147C] | ≤ -4.2
11 | GGAUCUUCUCGAUCUAACAAAAAAGACAAAUCUGCCACAAAGCUUGAGAGCAUCUUCUGAUGCAGAGGCGGCAGCCUUCGGUGGCGCCAUAGCGCCAACGUUCUCAACUAUGACACGCAAAACGCGUGCGCCGUUGAAUGGAGUUUAUCAUG [G58U G88C U130G] | ≤ -4.2
12 | GGAUCUUCUCGAUCUAACAAAAAAGACAAAUCUGCCACAAAGCUUGAGAGCAUCUUCGGAUACAGAGGCGGCAGCCUUCGGUGGCGCGAUAGCGCCAACGUUCUCAACUAUGACACGCAAAACGCGUGCUCCGUUGAAUGGAGUUUAUCAUG [G62A] | -0.367
13 | GGAUCUUCUCGAUCUAACAAAAAAGACAAAUGUGCCACAAAGCUUGAGAGCAUCUUCGGAUGCAGAGGCGGCAGCCUUCGGUGGCGCGAUAGCGCCAACGUUCUCAACUAUGACACGCAAAACGCGUGCUCCGUUGAAUGGAGUUUAUCAUG [C32G] | -3.19
14 | GGAUCUUCUCGUUCUAACAAAAAAGACAAAUCUGCCACAAAGCUUGAGAGCAUCUUCGAAUGCAGAGGCGGCAGGCUUCGGUGGCGCGAUAGCGCCAACGUUCUCAACUAUGACACGCAAAACGCGGGCUCCGUUGAAUGGAGUUUAUCAUG [A12U G59A C75G U127G] | -4.12
15 | GGAUCUUCUCGAUCUAACAAAAAAGACAAAUCUGCCACAAAGCUUGAGAGCAUCUUCGGAUGCAGAGGCGUCAGCCUUCGGUGGCGCGAUAGCGCCAACGUUCUCAACUAUGACACGCAGAACGCGUGCUCCGUUGAAUGGAGUUCAUCAUG [G71U A120G U146C] | -2.36
16 | GGAUCUUCUCGAUCUAACAAAAAAGAGAAAUCUGGCACAAAGCUUGAGCGCAUCUUCGGAUGCAGAGGCCGCAGCCUUAGGUGGCGCGAUAGCGGCAACGUUCUCAACUAUGACACGCAAAACGCGUGCUCCGUUGAAUGGAGUUUAUCAUG [C27G C35G A49C G70C C79A C95G] | ≤ -4.2
17 | GGAUCUUAUCGAUCUAACAAAAAAGACUAAUCUGCCACAAAGCUUGAGAGCAUCUUCGGAUGCAGAGGCGGCAGCCUUUGGUGGCGCGAUAGUGCCAACGUUCUUAACUAUGACACGCAAAACGCGUGCUCCGUUGAAUGGAGUUUAUCAUG [C8A A28U C79U C93U C105U] | ≤ -4.2
18 | GGAUCUUCUCGAUCUAACAAAAAAGACAAAUCUGCCACAAAGCUUGAGAGCAUCUUCGGAUGCAGAGGCGGCAGCCUUCGAUGGAGCGAUAGCGCCAACGUUCUCAACUAUGACACGCAAAACGCGUGCUCCGUUGAAUGGAGUUUAUUAUG [G81A C85A C149U] | -0.877
19 | GGAUCUUCUCGAUCUAACAAAAAAGACAAAUCUGCCACAAAGCUUGCGAGCAUCUUCGGAUGUAGAGGCGGCAGCCUUAAGUGGCCCGAUAGCGCCAACGUCCUCAACUAUGACACGCAAAACGCGUGCUCCGUUGAAUGGAGUUUAUCAUG [A47C C63U C79A G80A G86C U102C] | ≤ -4.2
